IntAct's records for PubMed 25910212

B1: Fructose-1,6-bisphosphatase 1 (Homo sapiens), P09467 (parent)
chain: MADQAPFDTDVNTLTRFVMEEGRKARGTGELTQLLNSLCTAVKAISSAVRKAGIAHLYGIAGSTNVTGDQVKKLDVLSNDLVMNMLKSSFATCVLVSEEDKHAIIVEPEKRGKYVVCFDPLDGSSNIDCLVSVGTIFGIYRKKSTDEPSEKDALQPGRNLVAAGYALYGSATMLVLAMDCGVNCFMLDPAIGEFILVDKDVKIKKKGKIYSLNEGYARDFDPAVTEYIQRKKFPPDNSAPYGARYVGSMVADVHRTLVYGGIFLYPANKKSPNGKLRLLYECNPMAYVMEKAGGMATTGKEAVLDVIPTDIHQRAPVILGSPDDVLEFLKVYEKHSAQ
partner: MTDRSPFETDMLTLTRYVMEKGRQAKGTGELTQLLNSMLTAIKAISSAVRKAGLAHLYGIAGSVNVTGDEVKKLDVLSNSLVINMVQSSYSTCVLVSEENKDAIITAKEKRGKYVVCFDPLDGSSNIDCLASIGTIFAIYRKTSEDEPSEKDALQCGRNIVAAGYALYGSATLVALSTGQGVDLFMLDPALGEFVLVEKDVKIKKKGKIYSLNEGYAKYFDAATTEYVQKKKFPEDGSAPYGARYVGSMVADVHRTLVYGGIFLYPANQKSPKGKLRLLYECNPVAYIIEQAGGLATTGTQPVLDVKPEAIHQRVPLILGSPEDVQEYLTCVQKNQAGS
B2: Beta-crystallin A4 (Homo sapiens), P53673 (parent)
chain: MTLQCTKSAGPWKMVVWDEDGFQGRRHEFTAECPSVLELGFETVRSLKVLSGAWVGFEHAGFQGQQYILERGEYPSWDAWGGNTAYPAERLTSFRPAACANHRDSRLTIFEQENFLGKKGELSDDYPSLQAMGWEGNEVGSFHVHSGAWVCSQFPGYRGFQYVLECDHHSGDYKHFREWGSHAPTFQVQSIRRIQQ
B3: E3 ubiquitin-protein ligase TRIM32 (Homo sapiens), Q13049 (parent)
chain: MAAAAASHLNLDALREVLECPICMESFTEEQLRPKLLHCGHTICRQCLEKLLASSINGVRCPFCSKITRITSLTQLTDNLTVLKIIDTAGLSEAVGLLMCRSCGRRLPRQFCRSCGLVLCEPCREADHQPPGHCTLPVKEAAEERRRDFGEKLTRLRELMGELQRRKAALEGVSKDLQARYKAVLQEYGHEERRVQDELARSRKFFTGSLAEVEKSNSQVVEEQSYLLNIAEVQAVSRCDYFLAKIKQADVALLEETADEEEPELTASLPRELTLQDVELLKVGHVGPLQIGQAVKKPRTVNVEDSWAMEATASAASTSVTFREMDMSPEEVVASPRASPAKQRGPEAASNIQQCLFLKKMGAKGSTPGMFNLPVSLYVTSQGEVLVADRGNYRIQVFTRKGFLKEIRRSPSGIDSFVLSFLGADLPNLTPLSVAMNCQGLIGVTDSYDNSLKVYTLDGHCVACHRSQLSKPWGITALPSGQFVVTDVEGGKLWCFTVDRGSGVVKYSCLCSAVRPKFVTCDAEGTVYFTQGLGLNLENRQNEHHLEGGFSIGSVGPDGQLGRQISHFFSENEDFRCIAGMCVDARGDLIVADSSRKEILHFPKGGGYSVLIREGLTCPVGIALTPKGQLLVLDCWDHCIKIYSYHLRRYSTP
B4: Keratin, type II cytoskeletal 6A (Homo sapiens), P02538 (parent)
chain: MASTSTTIRSHSSSRRGFSANSARLPGVSRSGFSSVSVSRSRGSGGLGGACGGAGFGSRSLYGLGGSKRISIGGGSCAISGGYGSRAGGSYGFGGAGSGFGFGGGAGIGFGLGGGAGLAGGFGGPGFPVCPPGGIQEVTVNQSLLTPLNLQIDPTIQRVRAEEREQIKTLNNKFASFIDKVRFLEQQNKVLETKWTLLQEQGTKTVRQNLEPLFEQYINNLRRQLDSIVGERGRLDSELRGMQDLVEDFKNKYEDEINKRTAAENEFVTLKKDVDAAYMNKVELQAKADTLTDEINFLRALYDAELSQMQTHISDTSVVLSMDNNRNLDLDSIIAEVKAQYEEIAQRSRAEAESWYQTKYEELQVTAGRHGDDLRNTKQEIAEINRMIQRLRSEIDHVKKQCANLQAAIADAEQRGEMALKDAKNKLEGLEDALQKAKQDLARLLKEYQELMNVKLALDVEIATYRKLLEGEECRLNGEGVGQVNISVVQSTVSSGYGGASGVGSGLGLGGGSSYSYGSGLGVGGGFSSSSGRAIGGGLSSVGGGSSTIKYTTTSSSSRKSYKH
B5: Keratin, type II cytoskeletal 2 epidermal (Homo sapiens), P35908 (parent)
chain: MSCQISCKSRGRGGGGGGFRGFSSGSAVVSGGSRRSTSSFSCLSRHGGGGGGFGGGGFGSRSLVGLGGTKSISISVAGGGGGFGAAGGFGGRGGGFGGGSSFGGGSGFSGGGFGGGGFGGGRFGGFGGPGGVGGLGGPGGFGPGGYPGGIHEVSVNQSLLQPLNVKVDPEIQNVKAQEREQIKTLNNKFASFIDKVRFLEQQNQVLQTKWELLQQMNVGTRPINLEPIFQGYIDSLKRYLDGLTAERTSQNSELNNMQDLVEDYKKKYEDEINKRTAAENDFVTLKKDVDNAYMIKVELQSKVDLLNQEIEFLKVLYDAEISQIHQSVTDTNVILSMDNSRNLDLDSIIAEVKAQYEEIAQRSKEEAEALYHSKYEELQVTVGRHGDSLKEIKIEISELNRVIQRLQGEIAHVKKQCKNVQDAIADAEQRGEHALKDARNKLNDLEEALQQAKEDLARLLRDYQELMNVKLALDVEIATYRKLLEGEECRMSGDLSSNVTVSVTSSTISSNVASKAAFGGSGGRGSSSGGGYSSGSSSYGSGGRQSGSRGGSGGGGSISGGGYGSGGGSGGRYGSGGGSKGGSISGGGYGSGGGKHSSGGGSRGGSSSGGGYGSGGGGSSSVKGSSGEAFGSSVTFSFR
partner: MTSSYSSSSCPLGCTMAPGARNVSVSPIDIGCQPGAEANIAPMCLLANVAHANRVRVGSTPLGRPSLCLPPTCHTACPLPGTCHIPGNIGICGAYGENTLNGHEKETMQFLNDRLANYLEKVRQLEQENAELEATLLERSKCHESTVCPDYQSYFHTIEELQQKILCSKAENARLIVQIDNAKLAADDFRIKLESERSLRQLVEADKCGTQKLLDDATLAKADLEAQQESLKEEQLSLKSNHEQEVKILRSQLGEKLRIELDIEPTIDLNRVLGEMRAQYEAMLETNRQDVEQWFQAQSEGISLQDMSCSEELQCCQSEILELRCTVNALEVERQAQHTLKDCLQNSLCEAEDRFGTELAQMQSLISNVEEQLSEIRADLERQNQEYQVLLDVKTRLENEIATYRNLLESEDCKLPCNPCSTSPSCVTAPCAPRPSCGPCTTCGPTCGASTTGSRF
B6: Keratin, type II cytoskeletal 2 epidermal (Homo sapiens), P35908 (parent)
chain: B5 chain

Variants of: B1
Conditions: with FBP2, O00757

Variant	effect of a mutation on the interaction
G164S	with no effect
G260R	with no effect
N213K	with no effect

Variants of: B1
Conditions: with FBP2, O00757
Remark: another data set of the same source

Variant	effect of a mutation on the interaction
G260R	disrupting interaction strength

Variants of: B2
Conditions: with ikzf3_human IKZF3, Q9UKT9
Sequence of ikzf3_human IKZF3, Q9UKT9 (Q9UKT9 whole entry): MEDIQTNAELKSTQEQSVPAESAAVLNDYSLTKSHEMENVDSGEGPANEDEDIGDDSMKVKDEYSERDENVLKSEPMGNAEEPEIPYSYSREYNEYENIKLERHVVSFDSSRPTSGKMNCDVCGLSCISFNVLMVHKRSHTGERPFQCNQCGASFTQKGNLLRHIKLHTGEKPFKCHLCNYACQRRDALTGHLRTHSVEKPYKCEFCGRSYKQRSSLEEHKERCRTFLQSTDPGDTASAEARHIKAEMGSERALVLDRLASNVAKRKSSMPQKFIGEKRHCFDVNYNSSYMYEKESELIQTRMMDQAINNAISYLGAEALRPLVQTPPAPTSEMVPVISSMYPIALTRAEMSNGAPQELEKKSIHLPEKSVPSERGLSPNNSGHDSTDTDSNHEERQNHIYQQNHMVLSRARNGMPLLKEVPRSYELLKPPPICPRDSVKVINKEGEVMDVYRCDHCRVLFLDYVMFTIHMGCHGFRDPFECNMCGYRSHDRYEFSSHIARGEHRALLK

Variant	effect of a mutation on the interaction
V36M	disrupting interaction strength
L69P	disrupting interaction strength
F94S	disrupting interaction strength

Variants of: B2
Conditions: with trip6_human TRIP6, Q15654

Variant	effect of a mutation on the interaction
V36M	disrupting interaction strength
L69P	disrupting interaction strength
F94S	disrupting interaction strength

Variants of: B2
Conditions: with gli1_human GLI1, P08151
Sequence of gli1_human GLI1, P08151 (P08151 whole entry): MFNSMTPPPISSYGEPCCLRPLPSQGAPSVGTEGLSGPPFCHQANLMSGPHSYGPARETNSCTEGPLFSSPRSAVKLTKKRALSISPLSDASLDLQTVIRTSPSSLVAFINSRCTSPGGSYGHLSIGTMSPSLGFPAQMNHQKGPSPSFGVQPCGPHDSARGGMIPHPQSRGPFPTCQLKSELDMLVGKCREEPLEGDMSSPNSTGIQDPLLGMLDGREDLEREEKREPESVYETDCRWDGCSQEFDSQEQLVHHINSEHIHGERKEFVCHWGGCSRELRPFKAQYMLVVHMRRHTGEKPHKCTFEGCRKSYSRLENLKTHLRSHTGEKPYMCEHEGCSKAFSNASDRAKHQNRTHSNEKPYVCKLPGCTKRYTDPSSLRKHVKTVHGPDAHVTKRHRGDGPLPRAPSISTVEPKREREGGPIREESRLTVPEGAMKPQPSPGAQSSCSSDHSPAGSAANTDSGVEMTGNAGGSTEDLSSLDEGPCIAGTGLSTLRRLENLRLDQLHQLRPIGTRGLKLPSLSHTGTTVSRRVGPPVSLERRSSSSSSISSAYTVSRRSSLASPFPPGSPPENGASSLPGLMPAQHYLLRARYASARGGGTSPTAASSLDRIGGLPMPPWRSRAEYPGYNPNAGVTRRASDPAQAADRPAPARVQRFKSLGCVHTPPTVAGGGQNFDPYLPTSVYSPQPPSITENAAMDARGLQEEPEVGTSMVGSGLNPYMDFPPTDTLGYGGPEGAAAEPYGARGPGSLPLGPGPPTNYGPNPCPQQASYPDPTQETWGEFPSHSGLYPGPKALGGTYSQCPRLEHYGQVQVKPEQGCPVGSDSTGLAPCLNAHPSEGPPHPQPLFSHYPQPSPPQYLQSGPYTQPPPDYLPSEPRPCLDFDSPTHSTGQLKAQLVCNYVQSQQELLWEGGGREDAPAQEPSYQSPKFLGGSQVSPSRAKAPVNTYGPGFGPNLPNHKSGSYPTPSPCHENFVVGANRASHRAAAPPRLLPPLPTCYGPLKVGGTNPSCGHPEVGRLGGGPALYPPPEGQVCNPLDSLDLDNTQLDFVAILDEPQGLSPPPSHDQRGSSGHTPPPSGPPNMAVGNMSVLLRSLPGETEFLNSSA

Variant	effect of a mutation on the interaction
V36M	disrupting interaction strength
L69P	disrupting interaction strength
F94S	disrupting interaction strength

Variants of: B2
Conditions: with ccd33_human CCDC33, Q8N5R6

Variant	effect of a mutation on the interaction
V36M	disrupting interaction strength
L69P	disrupting interaction strength
F94S	disrupting interaction strength

Variants of: B3
Conditions: with PDE9A

Variant	effect of a mutation on the interaction
D487N	disrupting interaction strength
R394H	disrupting interaction strength
P130S	with no effect

Variants of: B3
Conditions: with praf1_human RABAC1, Q9UI14
Sequence of praf1_human RABAC1, Q9UI14 (Q9UI14 whole entry): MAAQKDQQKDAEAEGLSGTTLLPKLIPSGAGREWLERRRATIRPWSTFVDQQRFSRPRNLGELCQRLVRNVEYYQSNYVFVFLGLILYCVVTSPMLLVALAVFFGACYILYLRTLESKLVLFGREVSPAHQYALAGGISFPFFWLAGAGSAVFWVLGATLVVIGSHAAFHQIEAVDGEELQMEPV

Variant	effect of a mutation on the interaction
D487N	disrupting interaction strength
R394H	disrupting interaction strength
P130S	with no effect

Variants of: B3
Conditions: with ABI2, Q9NYB9-2
Sequence of ABI2, Q9NYB9-2 (Q9NYB9 other isoform, or with tags, fused parts or gaps): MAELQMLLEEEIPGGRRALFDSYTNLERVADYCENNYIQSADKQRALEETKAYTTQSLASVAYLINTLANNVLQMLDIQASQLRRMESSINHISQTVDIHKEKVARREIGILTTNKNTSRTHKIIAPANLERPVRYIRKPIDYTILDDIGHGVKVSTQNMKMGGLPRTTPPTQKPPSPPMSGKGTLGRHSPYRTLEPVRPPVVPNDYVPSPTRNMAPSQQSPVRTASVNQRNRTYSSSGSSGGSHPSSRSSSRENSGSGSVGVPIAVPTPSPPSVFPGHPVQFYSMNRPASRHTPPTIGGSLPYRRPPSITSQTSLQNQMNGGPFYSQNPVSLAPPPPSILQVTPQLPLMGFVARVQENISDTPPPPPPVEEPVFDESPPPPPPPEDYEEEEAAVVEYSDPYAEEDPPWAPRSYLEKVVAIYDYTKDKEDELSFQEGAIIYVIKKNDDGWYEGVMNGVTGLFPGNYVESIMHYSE

Variant	effect of a mutation on the interaction
D487N	disrupting interaction strength
R394H	disrupting interaction strength
P130S	with no effect

Variants of: B3
Conditions: with PDE9A
Remark: another data set of the same source

Variant	effect of a mutation on the interaction
R394H	with no effect

Variants of: B4
Conditions: with KRT15, P19012

Variant	effect of a mutation on the interaction
N21S	with no effect
F249L	with no effect

Continued, values first:

effect of a mutation on the interaction	Variant
with no effect	T552S
with no effect	V523F

Variants of: B4
Conditions: with KRT40, Q6A162
Target sequence in this assay (Q6A162 whole entry): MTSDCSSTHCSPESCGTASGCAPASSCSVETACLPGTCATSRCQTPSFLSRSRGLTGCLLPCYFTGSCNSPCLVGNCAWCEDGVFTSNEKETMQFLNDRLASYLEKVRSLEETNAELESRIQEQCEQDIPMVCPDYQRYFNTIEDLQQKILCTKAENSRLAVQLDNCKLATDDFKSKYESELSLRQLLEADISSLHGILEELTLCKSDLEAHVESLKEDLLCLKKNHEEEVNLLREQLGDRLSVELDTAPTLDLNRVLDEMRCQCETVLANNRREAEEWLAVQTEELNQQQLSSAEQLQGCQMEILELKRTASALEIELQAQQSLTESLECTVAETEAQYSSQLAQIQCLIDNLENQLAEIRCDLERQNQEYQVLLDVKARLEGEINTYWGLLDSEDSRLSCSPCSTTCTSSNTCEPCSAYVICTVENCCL

Variant	effect of a mutation on the interaction
N21S	with no effect
F249L	with no effect

Continued, values first:

effect of a mutation on the interaction	Variant
with no effect	T552S
with no effect	V523F
disrupting interaction strength	I462S
disrupting interaction strength	A463P

Variants of: B4
Conditions: with k1h1_human KRT31, Q15323
Target sequence in this assay (Q15323 whole entry): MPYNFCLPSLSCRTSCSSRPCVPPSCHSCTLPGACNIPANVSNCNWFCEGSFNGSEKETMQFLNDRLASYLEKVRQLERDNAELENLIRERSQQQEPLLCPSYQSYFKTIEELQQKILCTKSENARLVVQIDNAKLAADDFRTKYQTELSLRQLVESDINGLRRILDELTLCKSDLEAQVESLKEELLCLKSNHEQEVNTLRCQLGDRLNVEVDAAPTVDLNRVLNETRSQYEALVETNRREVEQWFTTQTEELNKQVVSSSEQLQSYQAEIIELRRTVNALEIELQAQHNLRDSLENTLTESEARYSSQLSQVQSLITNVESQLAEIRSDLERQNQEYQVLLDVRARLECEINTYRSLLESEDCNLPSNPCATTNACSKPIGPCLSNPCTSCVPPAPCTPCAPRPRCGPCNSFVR

Variant	effect of a mutation on the interaction
N21S	with no effect
F249L	with no effect

Second part, the variant after the results:

effect of a mutation on the interaction	Variant
with no effect	T552S
with no effect	V523F

Variants of: B4
Conditions: with tfp11_human TFIP11, Q9UBB9
Sequence of tfp11_human TFIP11, Q9UBB9 (Q9UBB9 whole entry): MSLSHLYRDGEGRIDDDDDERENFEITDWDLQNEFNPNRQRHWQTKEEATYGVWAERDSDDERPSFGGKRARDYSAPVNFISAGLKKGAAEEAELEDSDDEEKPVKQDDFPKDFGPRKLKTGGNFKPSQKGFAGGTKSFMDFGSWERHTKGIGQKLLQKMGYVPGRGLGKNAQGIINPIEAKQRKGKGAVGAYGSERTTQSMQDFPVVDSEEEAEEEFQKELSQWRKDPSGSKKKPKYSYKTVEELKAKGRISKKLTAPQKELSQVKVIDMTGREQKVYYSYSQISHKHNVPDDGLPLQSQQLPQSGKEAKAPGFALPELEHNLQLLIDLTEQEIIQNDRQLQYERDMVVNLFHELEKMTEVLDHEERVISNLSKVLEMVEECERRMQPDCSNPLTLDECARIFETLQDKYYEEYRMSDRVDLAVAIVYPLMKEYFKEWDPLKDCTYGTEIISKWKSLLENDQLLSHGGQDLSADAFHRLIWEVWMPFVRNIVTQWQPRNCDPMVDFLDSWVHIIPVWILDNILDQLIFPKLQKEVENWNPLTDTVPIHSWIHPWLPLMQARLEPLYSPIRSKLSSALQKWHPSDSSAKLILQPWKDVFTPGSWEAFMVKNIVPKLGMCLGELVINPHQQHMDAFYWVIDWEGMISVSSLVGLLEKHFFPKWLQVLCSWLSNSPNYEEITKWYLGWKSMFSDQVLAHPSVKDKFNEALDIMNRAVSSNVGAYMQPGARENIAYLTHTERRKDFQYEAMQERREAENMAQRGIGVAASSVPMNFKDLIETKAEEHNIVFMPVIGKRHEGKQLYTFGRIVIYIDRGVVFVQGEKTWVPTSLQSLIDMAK

Variant	effect of a mutation on the interaction
N21S	with no effect
F249L	with no effect

Second part, the variant after the results:

effect of a mutation on the interaction	Variant
with no effect	T552S
with no effect	V523F
disrupting interaction strength	I462S

Variants of: B4
Conditions: with goga2_human GOLGA2, Q08379

Variant	effect of a mutation on the interaction
N21S	with no effect
F249L	with no effect
F174V	with no effect
N171K	disrupting interaction strength

Now from value to variant:

effect of a mutation on the interaction	Variant
with no effect	T552S
with no effect	V523F
with no effect	I462S
with no effect	A463P

Variants of: B4
Conditions: with KRT15, P19012
Remark: another data set of the same source

Variant	effect of a mutation on the interaction
F174V	with no effect
N171K	with no effect

Other lines, results leading:

effect of a mutation on the interaction	Variant
with no effect	I462S
with no effect	A463P

Variants of: B4
Conditions: with KRT40, Q6A162
Remark: another data set of the same source
Target sequence in this assay (Q6A162 whole entry): as the sequence (Q6A162 whole entry) above

Variant	effect of a mutation on the interaction
F174V	with no effect
N171K	with no effect

Second part, the variant after the results:

effect of a mutation on the interaction	Variant
with no effect	I462S
with no effect	A463P

Variants of: B4
Conditions: with k1h1_human KRT31, Q15323
Remark: another data set of the same source
Target sequence in this assay (Q15323 whole entry): as the sequence (Q15323 whole entry) above

Variant	effect of a mutation on the interaction
F174V	with no effect
N171K	with no effect

Further lines, results first:

effect of a mutation on the interaction	Variant
with no effect	I462S
with no effect	A463P

Variants of: B4
Conditions: with tfp11_human TFIP11, Q9UBB9
Remark: another data set of the same source

Variant	effect of a mutation on the interaction
F174V	with no effect
N171K	with no effect

Continued, values first:

effect of a mutation on the interaction	Variant
with no effect	I462S
disrupting interaction strength	A463P

Variants of: B5
Conditions: with krt38_human KRT38, O76015

Variant	effect of a mutation on the interaction
L484P	with no effect
I477N	disrupting interaction strength
N186K	with no effect

Variants of: B5
Conditions: with krt38_human KRT38, O76015
Remark: another data set of the same source

Variant	effect of a mutation on the interaction
G219D	with no effect

Variants of: B6
Conditions: with KRT15, P19012

Variant	effect of a mutation on the interaction
L484P	with no effect
I477N	with no effect
N186K	with no effect

Variants of: B6
Conditions: with KRT40, Q6A162
Target sequence in this assay (Q6A162 whole entry): as the sequence (Q6A162 whole entry) above

Variant	effect of a mutation on the interaction
L484P	with no effect
I477N	disrupting interaction strength
N186K	with no effect

Variants of: B6
Conditions: with k1h1_human KRT31, Q15323
Target sequence in this assay (Q15323 whole entry): as the sequence (Q15323 whole entry) above

Variant	effect of a mutation on the interaction
L484P	disrupting interaction strength
I477N	disrupting interaction strength
N186K	with no effect

Variants of: B6
Conditions: with KRT40, Q6A162
Remark: another data set of the same source
Target sequence in this assay (Q6A162 whole entry): as the sequence (Q6A162 whole entry) above

Variant	effect of a mutation on the interaction
L484P	disrupting interaction strength
G219D	with no effect

Variants of: B6
Conditions: with KRT19, P08727
Sequence of KRT19, P08727 (P08727 whole entry): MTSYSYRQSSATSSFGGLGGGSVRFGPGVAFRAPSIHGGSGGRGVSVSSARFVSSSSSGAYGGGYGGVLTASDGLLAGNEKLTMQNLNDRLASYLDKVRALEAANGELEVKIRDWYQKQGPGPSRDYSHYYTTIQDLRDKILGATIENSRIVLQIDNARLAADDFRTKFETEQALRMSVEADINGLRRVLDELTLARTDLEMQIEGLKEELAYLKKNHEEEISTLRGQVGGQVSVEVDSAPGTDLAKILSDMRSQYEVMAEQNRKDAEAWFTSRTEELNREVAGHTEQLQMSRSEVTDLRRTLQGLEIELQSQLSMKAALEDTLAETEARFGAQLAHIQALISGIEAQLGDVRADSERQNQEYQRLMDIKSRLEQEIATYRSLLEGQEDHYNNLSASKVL

Variant	effect of a mutation on the interaction
N186K	with no effect
G219D	with no effect

Results, then the variant that gave them:

effect of a mutation on the interaction	Variant
with no effect	L484P
disrupting interaction strength	I477N

Variants of: B6
Conditions: with k1h1_human KRT31, Q15323
Remark: another data set of the same source
Target sequence in this assay (Q15323 whole entry): as the sequence (Q15323 whole entry) above

Variant	effect of a mutation on the interaction
L484P	with no effect
I477N	with no effect
G219D	with no effect

Variants of: B6
Conditions: with KRT15, P19012
Remark: another data set of the same source

Variant	effect of a mutation on the interaction
G219D	with no effect
